According to the supplement of paper PMC9170038:

Tested on: MS2 coat protein
Experiment: apparent KD of MS2 coat protein; designed switch direction (-1 OFF switch, 1 ON switch): -1; higher = weaker reporter binding
Method in brief: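 RNA switches sharing common flanks were transcribed by stalled E. coli RNA polymerase on Illumina chips. A doubling series of SNAP-549-labelled MS2 coat protein, from 0.7 or 1.5 nM to 3 µM, was applied in Tris-HCl pH 7.5 buffer with KCl, MgCl2, BSA, DTT, tRNA and Tween-20. Each step lasted 0.8–1.5 h at the bottom of the series and 10–20 min at the top. Normalised cluster fluorescence was curve-fitted, giving apparent KD as the per-design median over clusters.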

[1] = input ligand: microRNA oligo, concentration not stated
[2] = Eterna round: R95, input ligand: FMN 200 uM
[3] = Eterna round: R95, input ligand: microRNA oligo, concentration not stated
[4] = Eterna round: R95, input ligand: none

Sequence	apparent KD of MS2 coat protein (input ligand: FMN 200 uM) [nM]	apparent KD of MS2 coat protein (input ligand: none) [nM]	apparent KD of MS2 coat protein [1] [nM]	apparent KD of MS2 coat protein [2] [nM]	apparent KD of MS2 coat protein [3] [nM]	apparent KD of MS2 coat protein [4] [nM]
UGAUGGAGGCAGGAUAUUUUGAUGGAUACGAUAAAAGAAGGGCUGACAUGAGGAUCACCCAUGUGGAUAGCUCA [Eternabot (L1) Solution 39] (Eterna round: R97, puzzle: Exclusion 6)	17.8	14.4	–	–	–	–
UGCUGACGAGGAUAUACAUGAGGAUCACCCAUGUUGGUCAAGCGACUUCGGUCGCAAUGUAGAAGGCGUCAGCU [E3/8-A6] (Eterna round: R97, puzzle: Exclusion 3)	186	395	–	–	–	–
CGGUGUAACGUAGGAUAUCAGCGCAACUGACGAUGAGAAGGACGACAUGAGGAUCACCCAUGUGAUUUCUCAAUAUUAUACAUC [Prohibition 87 - Jieux - Exclusion NG 1] (Eterna round: R96, puzzle: Exclusion NG 1)	511	74.5	58.9	–	–	–
AGCUGUGGCCGAGGAUAUCUGAUAGUCCCAACCGAAAUAUAAUCGGACAUGAGGAUCACCCAUGUAGAGAAGGCGGUCUCAGCA [Eli eng2 - 070] (Eterna round: R96, puzzle: Exclusion NG 2)	214	73.9	57.9	–	–	–
GAAAAGAACGAGGAUAUGUUGGUGCAUACACUUGCAGAAGGCGUUACUUGAGGAUCACCCAAGUGAGACCGAGU [Cetelege] (Eterna round: R97, puzzle: Exclusion 6)	273	124	–	–	–	–
GAUGUGGGUUUCCGGAGGAACAUGAGGAUCACCCAUGUAGAAGUUGGAGGGAUAACGCUUUUUGCUCGUUACACGUG [JR_SV3TOV1_Sub055] (puzzle: Sensor v3, turn-off variant 1)	–	–	–	178	170	221
ACAUGUAAUGCAGGAUAUCUGACACAUGAGGAUCACCCAUGUGACCAGAGGAAUUGCUAAGAGUCGGAGAAGGGUAUGUACAUG [Ex NG2 #53] (Eterna round: R96, puzzle: Exclusion NG 2)	19.4	19.7	12.8	–	–	–
AAGGUGUUAGGAUAUCGUAGUUUGUGGCAGACGGGAUUUUGCGAGAAGGAACAUGAGGAUCACCCAUGUCGGAU [JR_Exclu4_Sub041] (puzzle: Exclusion 4)	–	–	–	–	27.1	–
UAACUUUUAGUAAGGAUAUCGGUCCCAAGGGACAACGAGAAGGUACAUGAGGAUCACCCAUGUGAAAUAAGAAU [Mod of Zala 3 - Jieux - Brourd's Mod of Exclusion 4] (Eterna round: R97, puzzle: Brourd's mod of Exclusion 4)	45.4	21.1	–	–	–	–
AAUCCACAUGAGGAUCACCCAUGUCAGGAUAUCGCGCGCGCGUUUUCGGUCUCGCGCGCGAGAAGGGACGGCUG (puzzle: Exclusion 1)	–	–	–	–	22	–
GUAUAACAUGUAGGAUAUGCAUGGCAAAGCUAUGCAGAAGGACAUGAGGAUCACCCAUGUAAUAGCGUCUGCGUACAGAUGCAA [Mat - Exclusion NG 1 - Mod of JL - D92] (Eterna round: R96, puzzle: Exclusion NG 1)	165	33.9	31	–	–	–
AAAUUAGCAAGUAGGUCCGACAUGAGGAUCACCCAUGUUAUCUGAAAUAACGCUGCAUGAUUGUGCGCUCGUCUUAG [Sensor-V1 #8] (Eterna round: R97, puzzle: Sensor, turn-off variant 1)	69.1	73.1	–	–	–	–
GCACUGCGAGGAUAUACAUGAGGAUCACCCAUGUGUCGGCAGCCACGGUAGCACGAGUGUAGAAGGCGCGUUAG [EX3 #45] (Eterna round: R97, puzzle: Exclusion 3)	146	31.2	–	–	–	–
AAUGAUUGACGAGGAUAUUGUGGUAAAACACGACGAGAAGGCGUAUGUCACAUGAGGAUCACCCAUGUGAGCUUUGUGGAUAUA [Ex NG1 #71] (Eterna round: R96, puzzle: Exclusion NG 1)	31.4	35.5	23.4	–	–	–
AGUAGGUCUACCUUGGUGGAUCUGCAUUUAUGCAGGUGAACAUGAGGAUCACCCAUGUCCUCAUUUGCUCGUCUUAU [JL turnoff v2 99.28] (puzzle: Sensor v3, turn-off variant 2)	–	–	–	55.3	539	61.5
CUCAUGUCAGGAUAUUAAGUCCGUAGCCUAUGGCUGCAACAUGAGAAGGGACAUGAGGAUCACCCAUGUCGGGA [Edceleon] (puzzle: Exclusion 4)	–	–	–	–	34.3	–
AGAUGGCGAGGAUAUACAUGAGGAUCACCCAUGUGAAGAAUAAUAGUGAGGAAGAAAAGUAGAAGGCGCUGUCA [Mat - Exclusion 3 - Mod of Salish D33] (puzzle: Exclusion 3)	–	–	–	–	37	–

Sequence	apparent KD of MS2 coat protein (input ligand: FMN 200 uM) [nM]	apparent KD of MS2 coat protein (input ligand: none) [nM]	apparent KD of MS2 coat protein [1] [nM]	apparent KD of MS2 coat protein [2] [nM]	apparent KD of MS2 coat protein [3] [nM]	apparent KD of MS2 coat protein [4] [nM]
UUUUUAUUUUUUUAUUUUGACAUGAGGAUCACCCAUGUAACGAGCAGAUCUUCAUGCAAGCUUUUUGCUCGUCUUAU [Sensor v3 - Turn-off variant 1 - 41] (puzzle: Sensor v3, turn-off variant 1)	–	–	–	69.1	15.5	95.6
AUAAAGCGAGGAUAUACAUGAGGAUCACCCAUGUGGCAGCCAGGUAGGAGUGACGUCGGUAGAAGGCGCACCCU [Quleraer] (puzzle: Exclusion 3)	–	–	–	–	24.2	–
UACCUGAGGCAAAGCUUUAGGUAAACAUGAGGAUCACCCAUGUAGGAUAUGGUAGGCAAAGCUUACCAGAAGGACAUGUUAAUU [Mat - Exclusion NG 3 - Mod of JL - D34] (Eterna round: R96, puzzle: Exclusion NG 3)	341	83	79.5	–	–	–
AUAAAGUCAGGAUAUCGAAGUGAGUGGAGAGGAGGGAGGUACGAGAAGGGACAUGAGGAUCACCCAUGUAGGAA [JR_Exclusion4)Sub006] (puzzle: Exclusion 4)	–	–	–	25.5	24.2	21.9
CCAGGCGUCUUGGCUCGUCUUAUUUGGAGAGGAUUGAUAACAUGAGGAUCACCCAUGUGUGUGGGAGAGUUGCAGUG [JR_SV3TOV2_Sub018] (puzzle: Sensor v3, turn-off variant 2)	–	–	–	335	425	374
AAUAAGCUAGGAUAUACAUGAGGAUCACCCAUGUCCACGCUCUGGAGGGCUGAAUGAUGUAGAAGGAGCAGUGG [Zabier] (puzzle: Exclusion 3)	–	–	–	17.2	19.2	13.9
GGGCGCUUAGGAUAUACAUGAGGAUCACCCAUGUGGCUCUCCACGUUGCAUAACAUUCGUAGAAGGAAGCGCAU [Eternabot (L1) Solution 69] (Eterna round: R97, puzzle: Exclusion 3)	252	35.8	–	–	–	–
AAAUUGUGAGGAUAUCCAAUAUAUGACAUGAGGAUCACCCAUGUUUCCACUCGUACCUCCGGAGAAGGCACUUAAA [Ex5 #44] (Eterna round: R97, puzzle: Exclusion 5)	27.1	25.5	–	–	–	–
GGAGAGUGAGGAUAUACAUGAGGAUCACCCAUGUAUAUCAAAUAAAAUAAAUUCUCAUGUAGAAGGCGCUUUUC [Alacar 3rd Attempt] (Eterna round: R97, puzzle: Exclusion 3)	16.2	14.4	–	–	–	–
AGAUAUCUAGGAUAUGCGUCGCGGAGGACUCCGAAGGGAGGACAUGAGGAUCACCCAUGUAGAAGGAGACAUUG [Eternabot (L2) Solution 38] (Eterna round: R97, puzzle: Exclusion 2)	46	45	–	–	–	–
UGAUCUAGCGGAGGAUAUACAUGAGGAUCACCCAUGUAGACUCUAUGACCGUAGUCGUGGAGAGUGUAGAAGGCCGCUAGAUCU [JL ENG2 3.75] (Eterna round: R96, puzzle: Exclusion NG 2)	16.6	13.1	8.79	–	–	–
UUGUUGUAUGUAGGAUAUGCAUAUUAUUAUUGUGCAGAAGGACAUGAGGAUCACCCAUGUAUAUUAUUAUUAUAUGUUAUAUAU [Title] (Eterna round: R96, puzzle: Exclusion NG 1)	–	–	22.1	–	–	–
CAAAGAUAAGGAUAUUGAAGGUUCGACAUGAGGAUCACCCAUGUUAUGUUGGAAAAGGGACAAGAAGGUAUGAAAC [salish99_ex5_r4_211] (Eterna round: R97, puzzle: Exclusion 5)	28.2	35.8	–	–	–	–
ACAUGAGGAUCACCCAUGUGAAAAGAAUGGCUGACACAGAGAUAGGAUAUGUGUGCAUAUCUAACACAGAAGGGUCAUGACUGG [Deportation 80 - Jieux - Exclusion NG 3] (Eterna round: R96, puzzle: Exclusion NG 3)	41.6	40.1	34.2	–	–	–
CGAGUGUAAGGAUAUUCGGCACUAGGGACCACCCUAGUGUAGAAGAAGGUACAUGAGGAUCACCCAUGUGGUUA [Bereisonma] (puzzle: Exclusion 4)	–	–	–	–	273	–
AGGUAACAUGAGGAUCACCCAUGUCAGGAUAUCAGUAAGAUGAGUAUAGAAUAGAGUAUGAGAAGGGACUAUAU [Excluse me! 24 - Jieux - Exclusion 1] (puzzle: Exclusion 1)	–	–	–	–	30.4	–
ACGCACACGCACGCACGCACACAUGAGGAUCACCCAUGUAAUUAGGAUAUAUUGAAGAACAGAGAAUAGAAGGAAUUACUCAUG [Default title] (Eterna round: R96, puzzle: Exclusion NG 3)	105	70.7	88	–	–	–
